Measurements published in patent US11643670B2, “Methods of enhancing chromosomal homologous recombination” (Massachusetts Institute of Technology, priority 2018, dated 2023).

Key:
maternal Chd2 locus = assay: Donor-free interchromosomal homologous recombination (ICHR) in IVF-derived Chd2^R1684H/+ embryos; format: cell-based, mouse
Experimental: tracrRNA, crRNAs, and ssODNs were synthesized by Integrated DNA Technologies (TABLE 1). All injection mixtures were prepared in a final volume of 50 μL according to the following methodology: Using RNase-free water, reagents, and consumables, crRNA (final concentration 0.61 μM), tracrRNA (final concentration 0.61 μM), and ultrapure Tris-HCl, pH 7.39 (final concentration 10 mM, ThermoFisher) were mixed and incubated at 95° C. for 5 minutes. The mixtures were cooled to room temperature for 10 minutes on the benchtop, and then, EnGen Cas9-NLS S. pyogenes (New England Biolabs) was added to a final concentration of 30 ng/μL. The mixtures were incubated at 37° C. for 15 minutes before adding any remaining components: ssODN (final concentration 3 ng/μL or 30 ng/μL), RAD51 (Creative Biomart, final concentration 10 ng/μL). Injection mixtures were stored on ice and briefly heated to 37° C. prior to injection. For experiments utilizing RS-1, embryos were cultured in KSOM-AA (EMD Millipore MR-121-D) with […] RS-1 (Sigma) dissolved in DMSO or DMSO (Sigma, 1:1000) for 24 hours, washed, and cultured in EmbryoMax FHM HEPES Buffered Medium (Sigma) until collection for genotyping.
For experiments using wildtype recombinant proteins, the following proteins were used: RAD51 (Creative Biomart RAD51-134H), USP1/WDR48 (Creative Biomart USP1&WDR48-1067H), BCCIP (Origene TP303061), XRCC1 (TP304952), XRCC4 (Origene TP312684), DMC1 (Origene TP318311). For experiments using mutant RAD51, custom RAD51 preparations were produced by Creative Biomart according to their standard protocol for producing the wildtype RAD51 used in all other experiments. Mutant DNA sequences used for cloning are described in TABLE 2. All RAD51 mutants were modeled in human RAD51 transcript variant 4 (NCBI accession NM_001164269), as this is the transcript variant of the wildtype RAD51-134H protein used in all other experiments.
In vitro fertilization was performed using FERTIUP® Mouse Preincubation Medium and CARD MEDIA (Kyudo Company) according to the manufacturer's protocol. Non-virgin Chd2^R1684H/R1684H males that were >8 weeks old were used as sperm donors. Following IVF, embryos were cultured for 8 hours and then injected using the PNI protocol described below.
For all experiments except those described in FIG. 6, the male pronucleus was injected. Injections performed for the CPI portion of FIG. 6 were targeted to the cytoplasm. All microinjections were performed using a Narishige Micromanipulator, Nikon Eclipse TE2000-S microscope, and Eppendorf 5242 microinjector. Individual zygotes were injected with 1-2 pL of injection mixture using an “automatic” injection mode set according to needle size and adjusted for clear increase in pronuclear volume. Following injections, cells were cultured in KSOM-AA until collection for genotyping. For experiments giving rise to F0 animals, embryos were surgically implanted into pseudopregnant CD-1 females (Charles River Laboratories, Strain Code 022) 24-hours post-injection and allowed to develop normally until natural birth.
Embryos were collected at morula-to-blastocyst stage in 4 μL nuclease-free water. After collection, 4 μL of 2× embryo digestion buffer was added to each sample (final concentrations: 125 μg/mL proteinase K, 100 mM Tris-HCl pH 8.0, 100 mM KCl, 0.02% gelatin, 0.45% Tween-20, 60 μg/mL yeast tRNA) and embryos were lysed for 1 hour at 56° C. Proteinase K was inactivated via incubation at 95° C. for 10 minutes and DNA was stored at −20° C. until use.
Chd2^R1684H genotyping was performed via a two-step, nested approach. Except for experiments described in FIGS. 3A-3G, all 8 μL of embryo DNA were used as input for the initial, long round of PCR. Genotyping of mouse pups and adult animals was performed using 2 μL of purified tail DNA. For all embryo genotyping, reactions mixtures were set up in a UV-sterilized laminar flow hood using sterile reagents and filter tips to avoid contamination. […]

Chd2^R1684H locus = assay: Genotyping of individual blastomeres of 2-cell embryos; format: cell-based, mouse; conditions: blastomeres collected at 24hpf, IVF strategy, co-injected with RAD51
Experimental: Zygotes were prepared by IVF as described above and cultured until 24hpf in FHM at 37° C. and 5% CO2. Two-cell embryos were transferred 10 at a time into room temperature acidified Tyrode's solution. Embryos were monitored by microscopy and were transferred back to FHM once the zona pellucida was dissolved. Individual blastomeres were collected via mechanical dissociation with a glass micropipette and transferred to 4 μL nuclease-free water. Blastomeres were then lysed and processed for genotyping as previously described.
After fertilization, the maternal and paternal pronuclei remain until the completion of S-phase, at which time the pronuclei fuse in preparation for mitosis. […] To begin to address the timing of zygotic ICHR, genotyping of individual blastomeres was performed in early 2-cell embryos generated through the IVF strategy and co-injected with RAD51. […] Because the blastomeres were collected early in the 2-cell stage, it is unlikely that all observed mosaicism resulted from editing events after the completion of mitosis. […]

B1: RAD51: recombinant human strand exchange protein RAD51 (Creative Biomart RAD51-134H), transcript variant 4 (protein, UniProt Q06609 2-339, looked up)
DNA repair protein RAD51 …: AMQMQLEANADTSVEEESFGPQPISRLEQCGINANDVKKLEEAGFHTVEAVAYAPKKELINIKGISEAKADKILAEAAKLVPMGFTTATEFHQRRSEIIQITTGSKELDKLLQGGIETGSITEMFGEFRTGKTQICHTLAVTCQLPIDRGGGEGKAMYIDTEGTFRPERLLAVAERYGLSGSDVLDNVAYARAFNTDHQTQLLYQASAMMVESRYALLIVDSATALYRTDYSGRGELSARQMHLARFLRMLLRLADEFGVAVVITNQVVAQVDGAAMFAADPKKPIGGNIIAHASTTRLYLRKGRGETRICKIYDSPCLPEAEAMFAINADGVGDAKD
Question: How did the “ICHR observed, share of injected embryos” value (maternal Chd2 locus; PNI at ~8 hpf of Cas9/crRNA/tracrRNA, no donor, 26% in control injected embryos) turn out when B1 was run?
Answer: The value was 74%.

Question: What about the indel-to-ICHR ratio (maternal Chd2 locus; compared to control embryos) of the same molecule?
Answer: Its indel-to-ICHR ratio is “drastic decrease”.

Question: What about the overall indel rate (maternal Chd2 locus; compared to control embryos) of the same molecule?
Answer: The overall indel rate was “drastic decrease”.

Question: And the “mosaicism in embryos with an ICHR event in at least one cell” value (Chd2^R1684H locus)?
Answer: The value was 4/6.
